Reference: publication PMC9144871 (International Journal of Molecular Sciences, 2022)

Columns and labels:
SARS-CoV-2 spike RBD-His [1] = molecular target: T1, SARS-CoV-2 spike RBD-His (SARS-CoV-2, UniProt P0DTC2); test: SPR; conditions: both partners purified
[2] = molecular target: the molecule itself; test: SEC-MALS; analytical SEC-LS: Superdex 75 increase 10/30 with miniDAWN TREOS and refractive index detector; about 1.0 mg protein loaded; 50 mM Tris-HCl, 150 mM NaCl, 2.5% glycerol, pH 7.8; 0.5 mL/min
SARS-CoV-2 spike RBD-His [3] = molecular target: T1, SARS-CoV-2 spike RBD-His; test: SPR; conditions: both partners purified; remark: listed apart in the source
[4] = molecular target: the molecule itself; test: mass spectrometry; S-plug3 checked for its dimeric state by mass spectrometry; conditions not given

| Binder | Kd (SARS-CoV-2 spike RBD-His [1]) [nM] | stoichiometry N [2] | Kd (SARS-CoV-2 spike RBD-His [3]) [nM] | binding result [4] |
| --- | --- | --- | --- | --- |
| S-plug (designed binder, also called prototype S-plug) STIEEQAKTFLDKFNHEAEDLFYQSSLASWNYNTNITEENVQNMNNAGDKWSAFLKEQSTLAQMYPLQEIQNQTVKQQLQALQQN | 50 to 200 | 2 |  |  |
| S-plug2 (designed binder, also called thermo-stabilised S-plug; mutated form of S-plug) SAMEEQAKFFLDKLQHELEDTQYQLLYKALALNKSQQEELQKQYKKTYDEYVTLAKKWAKAASSIPLNSITDEKLYKAMEKTASS |  | 2 | 61.7 ± 2.3 |  |
| S-plug3 (designed binder, also called S-plug2 with C-terminal arm PPGC; cysteine-locked S-plug) SAMEEQAKFFLDKLQHELEDTQYQLLYKALALNKSQQEELQKQYKKTYDEYVTLAKKWAKAASSIPLNSITDEKLYKAMEKTASSPPGC |  |  | 39.5 ± 1.1 | binds |
